{
  "source": "patent US20190224274",
  "about": "“MIF INHIBITORS AND METHODS OF USE THEREOF” (The Johns Hopkins University, published 2019)",
  "key": {"MIF [1]": {"molecular_target": "T1, MIF (Homo sapiens, UniProt P14174 P14174:1-115)", "T1 sequence": "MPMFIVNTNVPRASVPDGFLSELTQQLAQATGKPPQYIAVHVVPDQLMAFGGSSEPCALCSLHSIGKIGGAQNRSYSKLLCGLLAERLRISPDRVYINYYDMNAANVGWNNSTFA", "test": "EMSA; 10 mM Mg2+; no obvious effect vs PS30", "details": "tags: GST tag removed (pGex-6P-1); chain copies: 3 (inferred, trimer by FPLC); label: 5' biotin; stem loop, no 3' unpaired bases", "procedure": "5′ biotin labeled ssPS³⁰ and its sequence-related substrates with different structures by removing unpaired bases at the 5′ end, 3′ end, both 5′ and 3′ ends or eliminating the stem loop were used in the EMSA (FIG. 3B, and FIG. 19).\nEMSA assay was performed using LightShift Chemiluminescent EMSA kit (Thermo Scientific) following the manufactures instruction. Briefly, purified MIF protein (2 μM) was incubated with biotin-labeled DNA substrates (10 nM) in the binding buffer containing 10 mM MgCl₂ for 30 mM on ice. Then samples were separated on 6% retardation polyacrylamide followed by electrophoretic transfer to nylon membrane. Then, Biotin-labeled DNA is further detected by chemiluminescence using Chemiluminescent Nucleic Acid Detection Module (Thermo Scientific)."}, "MIF [2]": {"molecular_target": "T1, MIF", "test": "EMSA; 10 mM Mg2+", "details": "tags: GST tag removed (pGex-6P-1); chain copies: 3 (inferred, trimer by FPLC); label: 5' biotin", "method": "In parallel with the ssDNA studies, MIF was tested to see if it binds to dsDNA using PS³⁰, poly A, PS³⁰ sequence-related substrates (5′bPS³⁰, 5′bSL, 5′bLF, 5′bRF, 5′bPA³⁰, and 5′bPASE) as well as non-related sequences (PCS and 5′bL3) (FIG. 3B and FIG. 19).\n(§1) EMSA assay was performed using LightShift Chemiluminescent EMSA kit (Thermo Scientific) following the manufactures instruction. Briefly, purified MIF protein (2 μM) was incubated with biotin-labeled DNA substrates (10 nM) in the binding buffer containing 10 mM MgCl₂ for […] on ice. Then samples were separated on 6% retardation polyacrylamide followed by electrophoretic transfer to nylon membrane."}, "MIF D17A": {"molecular_target": "T2, MIF D17A (Homo sapiens, UniProt P14174 P14174:1-115, D17A)", "T2 sequence": "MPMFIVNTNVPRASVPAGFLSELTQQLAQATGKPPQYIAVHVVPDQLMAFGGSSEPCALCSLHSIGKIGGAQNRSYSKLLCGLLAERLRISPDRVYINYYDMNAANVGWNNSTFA", "test": "EMSA; 10 mM Mg2+; text prints P17A", "details": "tags: GST tag removed; chain copies: 3; label: 5' biotin; stem loop with unpaired 5' and 3' bases", "method": "(§2) Both single stranded and double stranded forms of two classes of MIF DNA binding motifs were examined for MIF binding and cleavage specificity. The ssPS³⁰ sequence was synthesized with a 5′ biotin label and subjected to an electrophoretic mobility shift assay (EMSA) (FIG. 18C).\nas §1"}, "MIF P16A": {"molecular_target": "T3, MIF P16A (Homo sapiens, UniProt P14174 P14174:1-115, P16A)", "T3 sequence": "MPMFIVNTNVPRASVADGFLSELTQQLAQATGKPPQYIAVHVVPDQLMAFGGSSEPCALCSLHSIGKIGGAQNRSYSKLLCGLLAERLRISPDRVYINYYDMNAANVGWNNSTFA", "test": "EMSA; 10 mM Mg2+", "details": "tags: GST tag removed; chain copies: 3; label: 5' biotin; stem loop with unpaired 5' and 3' bases", "method": "as §2, §1"}, "MIF E22A": {"molecular_target": "T4, MIF E22A (Homo sapiens, UniProt P14174 P14174:1-115, E22A)", "T4 sequence": "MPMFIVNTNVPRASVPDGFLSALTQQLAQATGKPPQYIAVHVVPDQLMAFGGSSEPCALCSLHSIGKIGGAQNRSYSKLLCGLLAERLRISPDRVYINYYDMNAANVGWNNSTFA", "test": "EMSA; 10 mM Mg2+", "details": "tags: GST tag removed; chain copies: 3 (inferred); label: 5' biotin; stem loop with unpaired 5' and 3' bases", "method": "as §2, §1"}, "MIF E22Q": {"molecular_target": "T5, MIF E22Q (Homo sapiens, UniProt P14174 P14174:1-115, E22Q)", "T5 sequence": "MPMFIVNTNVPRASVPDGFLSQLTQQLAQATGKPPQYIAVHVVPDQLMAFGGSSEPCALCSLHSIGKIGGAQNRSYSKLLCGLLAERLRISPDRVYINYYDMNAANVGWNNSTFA", "test": "EMSA; 10 mM Mg2+", "details": "tags: GST tag removed; chain copies: 3 (inferred); label: 5' biotin; stem loop with unpaired 5' and 3' bases", "method": "as §2, §1"}, "MIF D17Q": {"molecular_target": "T6, MIF D17Q (Homo sapiens, UniProt P14174 P14174:1-115, D17Q)", "T6 sequence": "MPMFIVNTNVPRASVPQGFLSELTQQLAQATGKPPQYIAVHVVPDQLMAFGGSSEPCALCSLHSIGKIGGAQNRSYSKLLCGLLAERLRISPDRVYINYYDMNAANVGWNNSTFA", "test": "EMSA; 10 mM Mg2+; text prints P17Q", "details": "tags: GST tag removed; chain copies: 3; label: 5' biotin; stem loop with unpaired 5' and 3' bases", "method": "as §2, §1"}, "MIF [3]": {"molecular_target": "T1, MIF", "test": "EMSA; 10 mM Mg2+", "details": "tags: GST tag removed (pGex-6P-1); chain copies: 3 (inferred, trimer by FPLC); label: 5' biotin; stem loop, 1 unpaired 3' base"}},
  "data": [
    {"binder": "AAAAAAACTCAGCCTCCCAAGTAGCTGGGA (ssDNA)", "note": "[LF]", "values": [
      {"measurement": "binding result", "setting": "MIF [1]", "value": "binds"}
    ]},
    {"binder": "dsSL (dsDNA) DNA 1: CCTGTAATCCCAAGTAGCTGGGATTACAGG DNA 2: CCTGTAATCCCAGCTACTTGGGATTACAGG", "values": [
      {"measurement": "binding result", "setting": "MIF [2]", "value": "no binding"}
    ]},
    {"binder": "dsPA30 (dsDNA) DNA 1: AAAAAAAAAAAAAAAAAAAAAAAAAAAAAA DNA 2: TTTTTTTTTTTTTTTTTTTTTTTTTTTTTT", "values": [
      {"measurement": "binding result", "setting": "MIF [2]", "value": "no binding"}
    ]},
    {"binder": "dsL3 (dsDNA) DNA 1: ACCTAAATGCTAGAGCTCGCTGATCAGCCT DNA 2: AGGCTGATCAGCGAGCTCTAGCATTTAGGT", "values": [
      {"measurement": "binding result", "setting": "MIF [2]", "value": "no binding"}
    ]},
    {"binder": "CTCAGCCTCCCAAGTAGCTGGGATTACAGG (ssDNA)", "note": "[PS30]", "values": [
      {"measurement": "binding result", "setting": "MIF D17A", "value": "binds"},
      {"measurement": "binding result", "setting": "MIF P16A", "value": "binds"},
      {"measurement": "binding result", "setting": "MIF E22A", "value": "binds"},
      {"measurement": "binding result", "setting": "MIF E22Q", "value": "binds"},
      {"measurement": "binding result", "setting": "MIF D17Q", "value": "binds"}
    ]},
    {"binder": "AAAAAAAAAACAAGTAGCTGGGATTACAGG (ssDNA)", "note": "[3F1]", "values": [
      {"measurement": "binding result", "setting": "MIF [3]", "value": "binds"}
    ]},
    {"binder": "dsPS30 (dsDNA) DNA 1: CTCAGCCTCCCAAGTAGCTGGGATTACAGG DNA 2: CCTGTAATCCCAGCTACTTGGGAGGCTGAG", "values": [
      {"measurement": "binding result", "setting": "MIF [2]", "value": "no binding"}
    ]},
    {"binder": "dsLF (dsDNA) DNA 1: AAAAAAACTCAGCCTCCCAAGTAGCTGGGA DNA 2: TCCCAGCTACTTGGGAGGCTGAGTTTTTTT", "values": [
      {"measurement": "binding result", "setting": "MIF [2]", "value": "no binding"}
    ]},
    {"binder": "dsRF (dsDNA) DNA 1: TCCCAAGTAGCTGGGATTACAGGAAAAAAA DNA 2: TTTTTTTCCTGTAATCCCAGCTACTTGGGA", "values": [
      {"measurement": "binding result", "setting": "MIF [2]", "value": "no binding"}
    ]}
  ]
}
